Laboratory results reported in paper PMC11022571, “Functional analysis of feedback inhibition-insensitive aspartate kinase identified in a threonine-accumulating mutant of Saccharomyces cerevisiae” (Applied and Environmental Microbiology, 2024).
Residue numbers refer to the chain shown, from its start. Names may count otherwise.

B1: Hom3 (aspartate kinase, AK) (Saccharomyces cerevisiae S288C) (protein)
chain: MPMDFQPTSSHSNWVVQKFGGTSVGKFPVQIVDDIVKHYSKPDGPNNNVAVVCSARSSYTKAEGTTSRLLKCCDLASQESEFQDIIEVIRQDHIDNADRFILNPALQAKLVDDTNKELELVKKYLNASKVLGEVSSRTVDLVMSCGEKLSCLFMTALCNDRGCKAKYVDLSHIVPSDFSASALDNSFYTFLVQALKEKLAPFVSAKERIVPVFTGFFGLVPTGLLNGVGRGYTDLCAALIAVAVNADELQVWKEVDGIFTADPRKVPEARLLDSVTPEEASELTYYGSEVIHPFTMEQVIRAKIPIRIKNVQNPLGNGTIIYPDNVAKKGESTPPHPPENLSSSFYEKRKRGATAITTKNDIFVINIHSNKKTLSHGFLAQIFTILDKYKLVVDLISTSEVHVSMALPIPDADSLKSLRQAEEKLRILGSVDITKKLSIVSLVGKHMKQYIGIAGTMFTTLAEEGINIEMISQGANEINISCVINESDSIKALQCIHAKLLSERTNTSNQFEHAIDERLEQLKRLGI
B2: Hom3 (aspartate kinase, AK) (Saccharomyces cerevisiae S288C; A462T) (protein)
chain: B1 chain with A462T

Columns and labels:
[1] = target: T1, Hom3 (aspartate kinase, AK) (Saccharomyces cerevisiae, UniProt P10869); assay: PK/LDH-coupled AK assay at […] Asp and […] ATP; BN-PAGE shift from ~[…] to ~[…] kDa with […] Thr; format: biochemical
T1 sequence (P10869 1-527): B1 chain

[2] = substrate: N[C@@H](CC(=O)O)C(=O)O; assay: steady-state kinetics (Km), PK/LDH-coupled assay; format: biochemical, Saccharomyces cerevisiae; conditions: Mg2+ ([…] MgSO4 in assay)
[3] = substrate: Nc1ncnc2c1ncn2[C@@H]1O[C@H](COP(=O)(O)OP(=O)(O)OP(=O)(O)O)[C@@H](O)[C@H]1O; assay: steady-state kinetics (Km), PK/LDH-coupled assay; format: biochemical, Saccharomyces cerevisiae; conditions: Mg2+ ([…] MgSO4 in assay)

Molecule	IC50 [1] [mM]	Km [2] [µM]	kcat [2] [s⁻¹]	kcat/Km [2] [M⁻¹ s⁻¹]	Km [3] [µM]	kcat [3] [s⁻¹]	kcat/Km [3] [M⁻¹ s⁻¹]
C[C@@H](O)[C@H](N)C(=O)O [threonine]	5.4 ± 0.12	–	–	–	–	–	–
B1	–	3800 ± 360	55 ± 1.5	15000	830 ± 44	54 ± 0.78	65000
B2	–	4400 ± 370	55 ± 1.4	13000	1000 ± 71	53 ± 1.1	51000
